This is an account of results in patent publication US20240100176A1 (Eli Lilly, published 2024).

In experiment [1] the target is T1, hexahistidine tagged human IL-4Rα ECD D66R (human, UniProt P24394 26-232).
T1 construct: also called D66R IL-4Rα; not shown: hexahistidine tag
The experiment can be described thus: capture ELISA, His-tagged receptor mutant. The text has this: Example 2d. […] Briefly, thirty surface amino acid residue substitutions were introduced individually into hexahistidine tagged human IL-4Rα extra cellular domain (ECD) as follows: K2D, E6R, K22D, P26R, T31R, F41A, L42G, L43G, E45R, E52R, G56R, D66R, A71R, Q82G, K87D, E94R, H107A, D108R, P124R, D125R, D143R, R148D, L155R, R160D, S164R, S168R, Q181R, P192R, K195D, or H197G. Each mutant protein having a single amino acid residue substitution as described above was transiently expressed in CHO cells and purified using standard immobilized metal affinity chromatography techniques. […] The plates were then washed 3 times with PBST and the exemplified human IL-4Rα antibody was added to the wells at a final concentration of 1 μg/mL in PBS-casein and incubated for 1 hour at room temperature. The plates were washed 3 times with PBST, the IL-4Rα mutant proteins were serially diluted 5-fold from 1 μg/mL for 3 points. in PBS-casein and added to the plate at 50 μL/well and incubated for 1 hour at room temperature. […] The plates were washed 3 times, TMB substrate (Pierce, Cat. #34028) was added per manufacturer instructions, the reaction was quenched with H₂SO₄, and absorbance was read at 450 nm on an ELISA plate reader.
Background: In an ELISA, binding on a coated surface is turned into a signal by an enzyme label.

In experiment [2] the target is T2, hexahistidine tagged human IL-4Rα ECD T108R (human, UniProt P24394 26-232).
T2 construct: also called D108R; not shown: hexahistidine tag
Kind of experiment: capture ELISA: Ab1 on anti-human IgG Fc, His-tagged receptor at 0.04 µg/mL, anti-His HRP.

The target in experiment [3] is T3, human FcγRI (CD64) extracellular domain (human, UniProt P12314 16-292).
T3 construct: extracellular domain
T3 sequence (P12314 16-292): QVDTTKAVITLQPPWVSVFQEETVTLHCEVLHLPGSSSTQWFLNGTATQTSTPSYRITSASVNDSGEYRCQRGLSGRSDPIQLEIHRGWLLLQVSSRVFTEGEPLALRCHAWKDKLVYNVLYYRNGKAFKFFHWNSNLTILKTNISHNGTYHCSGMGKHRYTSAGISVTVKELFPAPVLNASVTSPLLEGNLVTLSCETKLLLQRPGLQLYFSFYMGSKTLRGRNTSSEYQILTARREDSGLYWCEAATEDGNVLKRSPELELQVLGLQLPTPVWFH
Kind of experiment: SPR (Biacore), antibody captured on protein A, FcγR ECD as analyte, 25 °C. On the procedure: Unreacted sites were blocked with a 7 minute injection of ethanolamine at 10 μL/minute. Injections of 2×10 μL of glycine, pH 1.5, was used to remove any noncovalently associated protein. Running buffer was 1×HBS-EP+(TEKNOVA, P/N H8022). The FcγR extracellular domains (ECDs)-FcγRI (CD64), FcγRIIA_131R, and FcγRIIA_131H (CD32a), FcγRIIIA_158V, FcγRIIIA_158F (CD16a), and FcγRIIb (CD32b) were produced from stable CHO cell expression and purified using IgG Sepharose and size exclusion chromatography. For FcγRI binding, antibodies were diluted to […] in running buffer, and approximately 150 RU of each antibody was captured in FCs 2 through 4 (RU captured). FC1 was the reference FC, therefore no antibody was captured in FC1. […] Duplicate injections of each concentration were injected over all FCs at 40 μL/minute for 120 seconds followed by a 1200 second dissociation phase. Regeneration was performed by injecting 15 μL of 10 mM glycine, pH 1.5, at 30 μL/minute over all FCs. […] The affinity (KD) was calculated using either steady state equilibrium analysis with the Scrubber 2 Biacore Evaluation Software or a “1:1 (Langmuir) binding” model in BIA Evaluation. […] The affinity (KD) was calculated using the steady state equilibrium analysis with the Scrubber 2 Biacore Evaluation Software. […]
In general terms: In SPR one partner is held on a chip, and binding of the other changes the refractive index at the surface.

The term Kd denotes the concentration at which binding is half-saturated. Read a high Kd as lower affinity.

B1: anti-human IL-4Rα antibody Ab1 (antibody, human IgG4 S228P, kappa)
heavy: QVQLVESGGGLVQPGGSLRLSCVASGFTFSHSSMNWVRQAPGKGLEWVSYISRATGAVYYADSVKGRFTISRDNAKNSLYLQMNSLRDEDTAVYYCAREPVFDYWGQGTLVTVSSASTKGPCVFPLAPCSRSTSESTAALGCLVKDYFPEPVTVSWNSGALTSGVHTFPAVLQSSGLYSLSSVVTVPSSSLGTKTYTCNVDHKPSNTKVDKRVESKYGPPCPPCPAPEFLGGPSVFLFPPKPKDTLMISRTPEVTCVVVDVSQEDPEVKFNWYVDGVEVHNAKTKPREEQFNSTYRVVSVLTVLHQDWLNGKEYKCKVSNKGLPSSIEKTISKAKGQPREPQVYTLPPSREEMTKNQVSLTCLVKGFYPSDICVEWESNGQPENNYKTTPPVLDSDGSFFLYSRLTVDKSRWQQGNVFSCSVMHEALHNHYTQKSLSLSLG
light: DIQMTQSPSAMSASVGDRVTITCRASQDISNYLAWFQQKPGKVPTRLIYAASSLQSGVPSRFSGSGSGTEFTLTISSLQPEDFATYYCLQWSSYPRTFGQGTKVEIKRTVAAPSVFIFPPSDEQLKSGTASVVCLLNNFYPREAKVQWKVDNALQSGNSQESVTEQDSKDSTYSLSSTLTLSKADYEKHKVYACEVTHQGLSSPVTKSFNRGEC
notes: human kappa light chain; also called anti-human IL-4Rα Ab1; unconjugated Ab1
As to B1, the binding result in experiment [1] is given as “no binding (tested: 1 µg/mL)”. Moreover, the “ELISA (OD450)” value in experiment [2] was 1.41 OD450.

B2: anti-human IL-4Rα Ab1 GC conjugate of Example 1b (n=4) (antibody, human IgG4 S228P, kappa)
heavy: B1 heavy
light: B1 light
modifications: glucocorticoid receptor agonist payload-linker (GC-L, Preparation 8) conjugated to the engineered cysteines at the 124 and 378 position of the heavy chain (EU numbering); n is 4 (average DAR 4.17 by RP-HPLC, 3.85 by TOF MS)
Regarding B2, the Kd in experiment [3] amounted to 0.64 nM. This lies in the sub-nanomolar range.
